# Experimental data: patent publication US20100015058A1 (STANFORD UNIVERSITY, published 2010)
# B1: DOTA-RGD-BBN (VIII) (peptide)
# peptide 1: RGDYK
# peptide 2: EQWAVGHLM
# modifications: not fully specified; DOTA (from DOTA-OSSu) on the amine of RGD-bombesin; Aca between Glu and Gln; C-terminal amide (Met-NH2); cyclic (cyclo); D-Tyr at position 4; Lys side chain joined to the Glu linker
# notes: also called DOTA-RGD-bombesin; ^64Cu-DOTA-RGD-BBN
# B2: FB-PEG3-Glu-RGD-BBN (peptide)
# peptide 1: RGDYK
# peptide 2: EQWAVGHLM
# modifications: 4-fluorobenzoyl (FB) on the amino group of the PEG3 spacer (11-amino-3,6,9-trioxaundecanoic acid), PEG3 on the Glu amino group; Glu γ-carboxylate joined to Aca; Aca between Glu and Gln; C-terminal amide (Met-NH2); cyclic (cyclo); D-Tyr at position 4; Lys side chain ε-amine joined to the α-carboxylate of Glu
# notes: also called FB-PEG3-RGD-BBN; ^18F-FB-PEG3-Glu-RGD-BBN
# B3: PEG3-Glu-RGD-BBN (peptide)
# peptide 1: RGDYK
# peptide 2: EQWAVGHLM
# modifications: not fully specified; PEG3 (11-amino-3,6,9-trioxaundecanoic acid) on the Glu amino group; Glu γ-carboxylate joined to Aca; Aca between Glu and Gln; C-terminal amide (Met-NH2); cyclic (cyclo); D-Tyr at position 4; Lys side chain ε-amine joined to the α-carboxylate of Glu
# notes: also called PEG3-RGD-BBN
# B4: RGD-BBN, cyclo(Arg-Gly-Asp-D-Tyr-Lys)-Glu-(Aca-Gln-Trp-Ala-Val-Gly-His-Leu-Met-NH2) (peptide)
# peptide 1: RGDYK
# peptide 2: EQWAVGHLM
# modifications: free amino group on Glu; Glu side-chain carboxylate joined to Aca; Aca between Glu and Gln; C-terminal amide (Met-NH2); cyclic (cyclo); D-Tyr at position 4; Lys side chain ε-amine joined to the α-carboxylate of Glu
# notes: also called Glu-RGD-BBN; RGD-bombesin
# B5: FB-NH-Glu-BBN(7-14)-c(RGDyK) (FB-BBN-RGD) (peptide)
# peptide 1: RGDYK
# peptide 2: EQWAVGHLM
# modifications: 4-fluorobenzoyl (FB) on the Glu amino group; Aca between Glu and Gln; C-terminal amide (Met-NH2); cyclic (cyclo); D-Tyr at position 4; Lys joined to one carboxylate of the Glu linker
# notes: non-radioactive FB form used in the IC50 assays; also called ^18F-FB-BBN-RGD
# B6: NH2-Glu-BBN(7-14)-c(RGDyK) (BBN-RGD) (peptide)
# peptide 1: RGDYK
# peptide 2: EQWAVGHLM
# modifications: free amino group on Glu; Aca between Glu and Gln; C-terminal amide (Met-NH2); cyclic (cyclo); D-Tyr at position 4; Lys joined to one carboxylate of the Glu linker
# notes: also called heterodimer BBN-RGD; BBN-RGD heterodimeric construct
# B7: NOTA-RGD-BBN (VII) (peptide)
# peptide 1: RGDYK
# peptide 2: EQWAVGHLM
# modifications: NOTA (from p-SCN-Bn-NOTA, SCN-amine reaction) on the amine of RGD-BBN; Aca between Glu and Gln; C-terminal amide (Met-NH2); cyclic (cyclo); D-Tyr at position 4; Lys side chain joined to the Glu …
# notes: also called NOTA-RGD-bombesin; ^64Cu-NOTA-RGD-BBN
# How the values were obtained:
# integrin αvβ3 [1] = target: T1, integrin αvβ3 (human, UniProt P06756 31-1048; P05106 27-788); experiment: competitive binding with ^125I-c(RGDyK) on U87MG cells
# T1 construct: whole, on cells; Endogenous receptor on U87MG human glioblastoma cells in the IC50 assays; also called integrin alpha v beta 3; human integrin αvβ3
# T1 sequence (P06756 31-1048, chain 1 of 2): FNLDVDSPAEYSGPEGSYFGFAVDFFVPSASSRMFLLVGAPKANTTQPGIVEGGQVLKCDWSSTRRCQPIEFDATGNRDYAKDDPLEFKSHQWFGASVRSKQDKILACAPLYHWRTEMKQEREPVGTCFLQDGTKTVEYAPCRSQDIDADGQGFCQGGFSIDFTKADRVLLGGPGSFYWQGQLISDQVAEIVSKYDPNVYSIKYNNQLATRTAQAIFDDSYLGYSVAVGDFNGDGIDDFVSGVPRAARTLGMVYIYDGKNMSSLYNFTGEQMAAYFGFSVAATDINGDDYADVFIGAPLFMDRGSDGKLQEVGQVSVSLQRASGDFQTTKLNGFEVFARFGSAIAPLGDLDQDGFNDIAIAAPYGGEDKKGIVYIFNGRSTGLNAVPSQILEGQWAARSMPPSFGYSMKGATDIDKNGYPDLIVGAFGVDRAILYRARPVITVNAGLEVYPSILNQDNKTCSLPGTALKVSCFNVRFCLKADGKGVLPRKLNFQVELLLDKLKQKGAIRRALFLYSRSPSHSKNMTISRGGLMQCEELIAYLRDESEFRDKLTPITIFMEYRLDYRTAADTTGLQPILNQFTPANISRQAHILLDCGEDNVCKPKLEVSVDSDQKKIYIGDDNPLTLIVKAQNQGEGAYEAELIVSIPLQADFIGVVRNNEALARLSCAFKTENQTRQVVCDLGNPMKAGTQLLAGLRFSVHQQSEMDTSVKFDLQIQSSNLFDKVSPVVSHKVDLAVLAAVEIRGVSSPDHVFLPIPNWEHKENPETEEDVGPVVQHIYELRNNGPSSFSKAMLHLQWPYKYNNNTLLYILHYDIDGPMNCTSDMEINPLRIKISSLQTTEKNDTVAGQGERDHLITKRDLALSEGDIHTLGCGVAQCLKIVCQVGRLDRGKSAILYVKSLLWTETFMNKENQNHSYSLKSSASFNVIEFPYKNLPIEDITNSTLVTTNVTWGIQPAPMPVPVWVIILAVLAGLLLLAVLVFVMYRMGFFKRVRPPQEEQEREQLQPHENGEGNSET
# T1 sequence (P05106 27-788, chain 2 of 2): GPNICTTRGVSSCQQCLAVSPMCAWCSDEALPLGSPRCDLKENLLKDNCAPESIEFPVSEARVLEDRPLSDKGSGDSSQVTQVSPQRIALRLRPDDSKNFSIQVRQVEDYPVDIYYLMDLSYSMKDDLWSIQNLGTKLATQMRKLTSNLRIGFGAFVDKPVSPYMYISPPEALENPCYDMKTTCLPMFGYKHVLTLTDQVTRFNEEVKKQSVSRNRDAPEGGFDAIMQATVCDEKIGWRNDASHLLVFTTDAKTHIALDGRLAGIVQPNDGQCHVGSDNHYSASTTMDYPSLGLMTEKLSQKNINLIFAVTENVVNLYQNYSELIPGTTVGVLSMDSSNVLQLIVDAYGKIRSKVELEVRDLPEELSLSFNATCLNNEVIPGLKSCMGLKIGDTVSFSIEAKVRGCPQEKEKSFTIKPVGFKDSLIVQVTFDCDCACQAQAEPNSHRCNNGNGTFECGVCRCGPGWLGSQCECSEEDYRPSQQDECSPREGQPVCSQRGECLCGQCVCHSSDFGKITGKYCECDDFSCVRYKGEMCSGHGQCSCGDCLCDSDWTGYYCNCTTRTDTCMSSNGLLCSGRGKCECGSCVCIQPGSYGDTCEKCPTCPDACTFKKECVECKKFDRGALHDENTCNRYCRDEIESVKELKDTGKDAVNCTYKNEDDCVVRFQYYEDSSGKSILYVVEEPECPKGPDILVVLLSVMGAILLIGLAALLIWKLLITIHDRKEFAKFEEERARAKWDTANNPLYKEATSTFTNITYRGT
# Procedure: The best-fit 50% inhibitory concentration (IC₅₀) values were calculated by fitting the data with nonlinear regression using GraphPad Prism (GraphPad Software). Experiments were performed twice with triplicate samples.
# integrin αvβ3 [2] = target: T1, integrin αvβ3; experiment: competitive binding with 125I-c(RGDyK) on U87MG cells
# [3] = target: T2, gastrin-releasing peptide receptor (GRPR) (human, UniProt P30550 1-384); experiment: competitive binding with 125I-[Tyr4]BBN on PC-3 cells
# T2 construct: whole, on cells; also called GRP receptor
# T2 sequence (P30550 whole entry): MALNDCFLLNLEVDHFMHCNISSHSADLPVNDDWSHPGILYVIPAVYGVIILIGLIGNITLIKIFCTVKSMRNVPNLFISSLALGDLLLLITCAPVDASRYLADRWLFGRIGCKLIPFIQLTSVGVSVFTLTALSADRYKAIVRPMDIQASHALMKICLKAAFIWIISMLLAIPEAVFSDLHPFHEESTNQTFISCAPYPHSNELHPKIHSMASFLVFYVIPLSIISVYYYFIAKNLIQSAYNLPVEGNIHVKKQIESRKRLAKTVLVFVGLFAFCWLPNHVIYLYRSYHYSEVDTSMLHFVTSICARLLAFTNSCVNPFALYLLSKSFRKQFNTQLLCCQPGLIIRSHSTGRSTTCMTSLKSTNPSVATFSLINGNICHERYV
# [4] = target: T2, gastrin-releasing peptide receptor …; experiment: displacement of ^125I-[Tyr^4]BBN from PC-3 cells; determined with FB-PEG3-RGD-BBN
# [5] = target: T2, gastrin-releasing peptide receptor …; experiment: displacement of ^125I-[Tyr^4]BBN from PC-3 cells
# integrin αvβ3 [6] = target: T1, integrin αvβ3; experiment: competitive displacement of ^125I-echistatin on U87MG cells
# Procedure: (§1) The best-fit 50% inhibitory concentration (IC₅₀) values were calculated by fitting the data with nonlinear regression using Graph-Pad Prism (GraphPad Software, Inc.). Experiments were performed with triplicate samples.
# [7] = target: T2, gastrin-releasing peptide receptor …; experiment: displacement of ^125I-[Tyr^4]BBN from 10^5 PC-3 cells
# Procedure: as §1
# [8] = target: T2, gastrin-releasing peptide receptor …; experiment: competitive binding with 125I-[Tyr4]BBN on PC-3 cells; determined with NOTA-RGD-BBN
binder,measurement,setting,value
"Aca-QWAVGHLM-NH2 (also called BBN monomer; cold BBN) [Aca-BBN(7-14), Aca-Gln-Trp-Ala-Val-Gly-His-Leu-Met-NH2]",binding result,integrin αvβ3 [1],no binding
B1,IC50,integrin αvβ3 [2],21.6 nM
same,IC50,[3],85.8 nM
B2,IC50,[4],73.3 nM
B3,IC50,[5],85.5 nM
B4,IC50,[5],67.9 nM
same,IC50,integrin αvβ3 [1],17.9 nM
B5,IC50,integrin αvβ3 [6],282 nM
same,IC50,[7],32 nM
B6,IC50,integrin αvβ3 [6],428 nM
same,IC50,[7],35.7 nM
B7,IC50,[8],92.8 nM
same,IC50,[5],55.9 nM
